Test results reported in US20070105162A1, “Monovalent avidin and streptavidin compositions” (Massachusetts Institute of Technology, priority 2005, published 2007).

Test: Biotin binding of avidin triple mutant (D4)
Description: After incubation at room temperature for 20 hr, the protein is precipitated by adding 50 μL to 200 μL 0.2 M ZnSO4 followed by 200 μL 0.2 M NaOH. The protein precipitate is pelleted by centrifugation at 16,500 g for 5 min. The biotin bound by D4 is calculated from the total ^3H-biotin added minus the ^3H-biotin in the supernatant. The Kd is obtained using a nonlinear regression analysis (one-site binding hyperbola) with SigmaPlot (Systat Software; Point Richmond, Calif.).
Methods provided in the Methods section above are used to make and test the monovalent avidin. We produce an avidin tetramer consisting of three subunits unable to bind biotin and one subunit that binds biotin as well as wild-type avidin. A triple mutant N12A, S16D, T35A is produced. […] The binding of this triple mutant (composed of “Dead” subunits-D) is so weak that it is difficult to measure. To generate monovalent avidin the wild-type subunit is first tagged with a His6-tag (“Alive” subunit-A). Then D and A subunits are combined at a molar ratio of 3:1 in guanidinium hydrochloride and refolded by rapidly diluting the mixture into PBS. This refold generates a mix of avidin tetramers of different compositions.

B1: D4 avidin: Avidin tetramer of four Dead subunits (N12A, S16D, T35A, SEQ ID NO:18) (protein)
chain: ARKCSLTGKWTADLGDNMTIGAVNSRGEFTGTYIAAVTATSNEIKESPLHGTQNTINKRTQPTFGFTVNWKFSESTTVFTGQCFIDRNGKEVLKTMWLLRSSVNDIGDDWKATRVGINIFTRLRTQKE
modifications: tetramer
Question: Which “biotin binding of avidin triple mutant” value does the source give for B1 here?
Answer: negligible biotin binding
